Source: PMC10174300

Molecular target: T cell immunoglobulin-3 (TIM-3) (human (endogenous in CD3+ T cells from PBMCs)) (UniProt Q8TDQ0)

Galectin-9, sequence (O00182 whole entry): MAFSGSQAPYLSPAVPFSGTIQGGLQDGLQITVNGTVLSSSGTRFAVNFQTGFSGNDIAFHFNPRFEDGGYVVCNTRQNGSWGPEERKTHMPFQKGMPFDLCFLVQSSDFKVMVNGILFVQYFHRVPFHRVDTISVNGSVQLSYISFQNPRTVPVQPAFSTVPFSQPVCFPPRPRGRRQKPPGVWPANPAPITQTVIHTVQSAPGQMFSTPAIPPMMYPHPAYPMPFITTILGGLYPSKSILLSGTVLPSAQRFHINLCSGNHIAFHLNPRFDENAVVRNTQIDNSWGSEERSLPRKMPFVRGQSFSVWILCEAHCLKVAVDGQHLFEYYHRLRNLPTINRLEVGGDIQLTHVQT

## Galectin-9 (from UniProt O00182 1-355) (ligand)
  T cell proliferation (DELFIA, TRF intensity) of activated CD3+ T cells treated with Galectin-9 at 55.6 nM, against activated T cells without Galectin-9: 50%
